{"source": "patent US20260184766A1", "about": "(APPLIED BIOMEDICAL SCIENCE INSTITUTE, published 2026)", "key": {"[1]": {"target": "T1, SARS CoV-2 spike trimer protein from the parental Wuhan-Hu-1 isolate (recombinant stabilized extracellular … (SARS-CoV-2 (Wuhan-Hu-1)))", "T1 construct": "also called Spike protein", "assay": "ELISA on coated spike protein, anti-human Fc-HRP, OD450"}, "[2]": {"target": "T1, SARS CoV-2 spike trimer protein from …", "assay": "ELISA on coated recombinant stabilized spike protein, panel WT, OD 450"}, "[3]": {"target": "T1, SARS CoV-2 spike trimer protein from …", "assay": "ELISA, spike coated, chimeric IgG1"}}}
{"binder": "R2G3 chimeric bovine-human IgG1 (ultralong CDR3) (antibody, also called 2G3 IgG; R2-G3 IgG) VH: QVQLRESGPSLVKPSQTLSLTCAASGFSLSDKAVGWVRRAPGKALEWLGSIDTGGSTGYNPGLKSRLSITKDNSKSQVSLSISSVTSEDSATYYCATVHQKTAEGDKTCPDGYEHTCGCIGGCGCKRSACIGALCCQASLGGWLSDGETYTYEFHVDTWGQGLVVTVSS VL: QAVLNQPSSVSGSLGQRVSITCSGSSSNVGNGYVSWYQLIPGSAPRTLIYGDTSRASGVPDRFSGSRSGNTATLTISSLQAEDEADYFCASAEDSSSNAVFGSGTTLTVL", "values": [{"measurement": "EC50 (read off the curve)", "setting": "[1]", "value": "~0.01", "unit": "nM"}, {"measurement": "EC50 (read off the curve)", "setting": "[2]", "value": "~0.4", "unit": "nM"}]}
{"binder": "R2C3 (R5C1) chimeric bovine-human IgG1 (ultralong CDR3) (antibody, also called SA-R2C3) VH: QVQLRESGPSLVKPSQTLSLTCTASGFSLSDKPVGWVRQAPGKPLEWLGSIDTAENTGYNPGLKSRLSITKDNSKSQVSLSLSSVTTEDSATYYCATVHQKTRKEKSCPDGYLYSSNTGRGYDCGVWTCRRVGGEFCSATGDWTSPSEEDFYEFYVDTWGQGAPVTVSS VL: QAVLNQPSSVSGSLGQRVSITCSGSSSNVGNGYVSWYQLIPGSAPRTLIYGDTSRASGVPDRFSGSRSGNTATLTISSLQAEDEADYFCASAEDSSSNAVFGSGTTLTVL", "values": [{"measurement": "EC50", "setting": "[3]", "value": 0.39, "unit": "nM"}, {"measurement": "EC50 (read off the curve)", "setting": "[2]", "value": "~0.3", "unit": "nM"}]}
{"binder": "R2D6 chimeric bovine-human IgG1 (antibody, V domains shown) VH: QVQLRESGPSLVKPSQTLSLTCTTSGFSLSSYAVGWVRQAPGKALEWVGDIDYVGNTDYNPALKSRLSITKDNSKSQVSLVVSSVTAEDAATYYCAKYSGAYAYAACNYYGWRCAWESYIDAWGQGLLVTVSS VL: QAVLNQPSSVSGSLGQRVSITCSGSSSNVGNGYVSWYQLIPGSAPRTLIYGDTSRASGVPDRFSGSRSGNTATLTISSLQAEDEADYFCASAEDSSSNAVFGSGTTLTVL", "values": [{"measurement": "EC50", "setting": "[3]", "value": 0.41, "unit": "nM"}]}
{"binder": "R2B1 chimeric bovine-human IgG1 (antibody, V domains shown) VH: QVQLRESGPSLVKPSQTLSLTCTVSGFSLSDNNVGWVRQAPGKALEWLGVMHNDGNKGYNPALKSRLSITKDSSKSQVSLSLSSVTSEDTATYYCTRDNARCDSWTYDSCDTWYRNSWHVDAWGQGLLVTVSS VL: QAVLNQPSSVSGSLGQRVSITCSGSSSNVGNGYVSWYQLIPGSAPRTLIYGDTSRASGVPDRFSGSRSGNTATLTISSLQAEDEADYFCASAEDSSSNAVFGSGTTLTVL", "values": [{"measurement": "EC50", "setting": "[3]", "value": 0.37, "unit": "nM"}]}
{"binder": "R2F12 chimeric bovine-human IgG1 (ultralong CDR3) (antibody, also called RR2F12) VH: QVQLRESGPSLVKPSQTLSLTCTVSGFSLSDKAVGWVRRAPGKALEWLGSIDTGGMTGYNPGLKSRLSITKDNSKSQVSLSVNSVTTEDSATYYCATVDQKTKNACPDDFDYRCSCIGGCGCARKGCVGPLCCRSDLGGYLTDSPAYIYEWYIDLWGQGLLVTVSS VL: QAVLNQPSSVSGSLGQRVSITCSGSSSNVGNGYVSWYQLIPGSAPRTLIYGDTSRASGVPDRFSGSRSGNTATLTISSLQAEDEADYFCASAEDSSSNAVFGSGTTLTVL", "values": [{"measurement": "EC50", "setting": "[3]", "value": 0.05, "unit": "nM"}, {"measurement": "EC50 (read off the curve)", "setting": "[1]", "value": "~0.02", "unit": "nM"}, {"measurement": "EC50 (read off the curve)", "setting": "[2]", "value": "~0.3", "unit": "nM"}]}
{"binder": "RBD F4 chimeric bovine-human IgG1 (antibody, V domains shown) VH: QVQLRESGPSLVKPSQTLSLTCTVSGFSLSSNGVVWVRQAPGKALEWLGDICSTGGTSFNPALKSRLSIAKDNSKSQVSLSVRSVTPEDTATYYCARSRGYDCYANVDALDYVDAWGQGLLVTVSS VL: QAVLNQPSSVSGSLGQRVSITCSGSSSNVGNGYVSWYQLIPGSAPRTLIYGDTSRASGVPDRFSGSRSGNTATLTISSLQAEDEADYFCASAEDSSSNAVFGSGTTLTVL", "values": [{"measurement": "EC50", "setting": "[3]", "value": 0.03, "unit": "nM"}]}
{"binder": "RBD C6 chimeric bovine-human IgG1 (antibody, V domains shown) VH: QVQLRESGPSLVKPSQTLSLTCTVSGFSLSSNGVVWVRQAPGRPLEWLGDICSNGGTSFNPALKSRLSIAKDNSESQVSLTVRSVTPEDTATYYCARSRGYDCYAYVYALDTVDAWGQGLLVTVSS VL: QAVLNQPSSVSGSLGQRVSITCSGSSSNVGNGYVSWYQLIPGSAPRTLIYGDTSRASGVPDRFSGSRSGNTATLTISSLQAEDEADYFCASAEDSSSNAVFGSGTTLTVL", "values": [{"measurement": "EC50", "setting": "[3]", "value": 0.03, "unit": "nM"}]}
{"binder": "SR3A3 chimeric bovine-human IgG1 (ultralong CDR3) (antibody) VH: QVQLRESGPSLVKPSQTLSLTCTISGFSLSSYAVLWVRQAPGKPLEWLGSIDTAENTGYNPGLKSRLSITKDNSKSQVSLSVSSVTTEDSATYYCATVHQKTRKEKNCPDGYIYSSNITSGFDCGVWICRRVGSAFCSRTGDYTSPTELDIYEFYVEGWGQGVPVTVSS VL: QAVLNQPSSVSGSLGQRVSITCSGSSSNVGNGYVSWYQLIPGSAPRTLIYGDTSRASGVPDRFSGSRSGNTATLTISSLQAEDEADYFCASAEDSSSNAVFGSGTTLTVL", "values": [{"measurement": "EC50", "setting": "[3]", "value": 0.037, "unit": "nM"}]}
{"binder": "RBD A2 chimeric bovine-human IgG1 (antibody, V domains shown) VH: QVQLRESGPSLVKPLQILSLTCTVSGFSLSSNGVVWVRQAPGKALEWLGDICSTGGTSFNPALKSRLSIAKDNSKSQVSLSVRSVTPEDTATYYCARSRGYDCYANVDALDYVDAWGQGLLVTVSS VL: QAVLNQPSSVSGSLGQRVSITCSGSSSNVGNGYVSWYQLIPGSAPRTLIYGDTSRASGVPDRFSGSRSGNTATLTISSLQAEDEADYFCASAEDSSSNAVFGSGTTLTVL", "values": [{"measurement": "EC50", "setting": "[3]", "value": 0.024, "unit": "nM"}]}
